Legend:
Details in all cases: protein: recombinant; tags: N-terminal 6xHis (pET-28a); chain copies: 2; label: none (GelRed stain)
[1] = target: T1, OhrR C11S C121S (Azorhizobium caulinodans ORS571, UniProt A8IEZ4 1-144, C11S;C121S); assay: EMSA; CuOOH; binding not affected; 50 mM Tris-HCl pH 8.3, 0.25 M KCl, 2.5 mM DTT, 5 mM MgCl2, 0.05 ug/mL poly(dI-dC), 2.5 mM EDTA, 1% glycerol; 20 nM DNA, 20 uL, 20 min, room temperature; 6% native PAGE in 0.5x TBE
T1 sequence: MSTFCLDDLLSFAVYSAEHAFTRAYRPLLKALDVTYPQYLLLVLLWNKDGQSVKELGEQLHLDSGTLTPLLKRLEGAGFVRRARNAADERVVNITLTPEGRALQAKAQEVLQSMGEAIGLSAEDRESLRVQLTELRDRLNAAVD

[2] = target: T2, OhrR C121S (Azorhizobium caulinodans ORS571, UniProt A8IEZ4 1-144, C121S); assay: EMSA; reducing; 50 mM Tris-HCl pH 8.3, 0.25 M KCl, 2.5 mM DTT, 5 mM MgCl2, 0.05 ug/mL poly(dI-dC), 2.5 mM EDTA, 1% glycerol; 20 nM DNA, 20 uL, 20 min, room temperature; 6% native PAGE in 0.5x TBE
T2 sequence: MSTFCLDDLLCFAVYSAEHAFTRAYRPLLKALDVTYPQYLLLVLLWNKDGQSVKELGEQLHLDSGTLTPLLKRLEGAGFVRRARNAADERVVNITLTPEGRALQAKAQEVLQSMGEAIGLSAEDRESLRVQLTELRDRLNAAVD

[3] = target: T3, OhrR C11S (Azorhizobium caulinodans ORS571, UniProt A8IEZ4 1-144, C11S); assay: as above
T3 sequence: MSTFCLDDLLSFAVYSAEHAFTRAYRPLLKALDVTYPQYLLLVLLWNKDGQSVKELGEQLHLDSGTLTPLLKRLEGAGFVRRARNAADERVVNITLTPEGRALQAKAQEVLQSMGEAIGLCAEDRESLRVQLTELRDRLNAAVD

Measured: binding result

B1: ohr promoter probe (181 bp) (dsDNA)
DNA 1: CAAAGGGTTAGTTTTCCGTTGCGGAAGGTTGGGTGATGTTGACGGTGGTCTGCAAAATAAGTTTGACACAATCAAATTGTGTGCTACTTAAATGGCCATGGAAGCGGCTTGGCCGTTTCTCATCGATTTCTCAAGGCACGAGGATCAAGCGATGTCCGTCGATGTGAAGTACACCACCAAG
DNA 2: CTTGGTGGTGTACTTCACATCGACGGACATCGCTTGATCCTCGTGCCTTGAGAAATCGATGAGAAACGGCCAAGCCGCTTCCATGGCCATTTAAGTAGCACACAATTTGATTGTGTCAAACTTATTTTGCAGACCACCGTCAACATCACCCAACCTTCCGCAACGGAAAACTAACCCTTTG
binds: [1] | [2] | [3]

— publication PMC7141136, “Ohr and OhrR Are Critical for Organic Peroxide Resistance and Symbiosis in Azorhizobium caulinodans ORS571”
